Results on one molecule are retold here after patent US20240181006A1, “POLYPEPTIDES BINDING ADAMTS5, MMP13 AND AGGRECAN” (Merck Patent GmbH, priority 2017, published 2024).

Experiment [1] addresses T1, mouse ADAMTS5 (Mus musculus, UniProt Q9R001).
T1 sequence (Q9R001 262-930): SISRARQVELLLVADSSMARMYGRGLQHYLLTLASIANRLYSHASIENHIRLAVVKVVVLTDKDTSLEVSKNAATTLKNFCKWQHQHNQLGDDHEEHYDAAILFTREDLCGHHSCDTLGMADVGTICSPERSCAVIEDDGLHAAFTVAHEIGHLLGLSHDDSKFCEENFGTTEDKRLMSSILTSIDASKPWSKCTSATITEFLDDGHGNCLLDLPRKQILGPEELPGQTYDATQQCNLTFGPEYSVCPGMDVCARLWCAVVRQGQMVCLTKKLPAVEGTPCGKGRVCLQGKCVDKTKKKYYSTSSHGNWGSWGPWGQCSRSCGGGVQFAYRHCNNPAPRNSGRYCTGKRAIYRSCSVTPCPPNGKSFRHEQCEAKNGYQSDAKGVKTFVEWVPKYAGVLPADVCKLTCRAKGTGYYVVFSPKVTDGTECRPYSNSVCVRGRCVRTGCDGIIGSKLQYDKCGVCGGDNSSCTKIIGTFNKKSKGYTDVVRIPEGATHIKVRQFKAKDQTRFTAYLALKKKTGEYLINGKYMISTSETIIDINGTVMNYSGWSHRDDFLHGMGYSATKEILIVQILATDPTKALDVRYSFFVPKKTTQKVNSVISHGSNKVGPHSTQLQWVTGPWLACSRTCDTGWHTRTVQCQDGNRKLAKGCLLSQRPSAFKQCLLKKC
Nature of the experiment: SPR-based off-rate analysis, mouse ADAMTS5. In kind it is binding. The note with it: Experiment 2. As for the experimental part:
Species cross-reactivity was initially evaluated via SPR-based off-rate analysis on a Biacore T100 instrument. Polypeptides were tested for binding to human, cynomolgus monkey (“cyno”), guinea pig, mouse, and bovine ADAMTS5. To this end, recombinant ADAMTS5 was immobilized onto a CM5 chip via amine coupling using EDC and NHS. Purified ISVD 02F03 was injected for 2 minutes at a concentration of 100 nM and allowed to dissociate for 15 min at a flow rate of 45 μl/min. Off-rate for each individual ADAMTS5 was determined by fitting a 1:1 interaction model (Langmuir model) onto the individual dissociation curves using the BIA Evaluation software. As a reference, off-rates on human ADAMTS5 were determined in each experiment.

Experiment [2] has as its target T2, human ADAMTS4 (Homo sapiens, UniProt O75173).
T2 construct: purchased R&D Systems 4307-AD
T2 sequence (O75173 213-837): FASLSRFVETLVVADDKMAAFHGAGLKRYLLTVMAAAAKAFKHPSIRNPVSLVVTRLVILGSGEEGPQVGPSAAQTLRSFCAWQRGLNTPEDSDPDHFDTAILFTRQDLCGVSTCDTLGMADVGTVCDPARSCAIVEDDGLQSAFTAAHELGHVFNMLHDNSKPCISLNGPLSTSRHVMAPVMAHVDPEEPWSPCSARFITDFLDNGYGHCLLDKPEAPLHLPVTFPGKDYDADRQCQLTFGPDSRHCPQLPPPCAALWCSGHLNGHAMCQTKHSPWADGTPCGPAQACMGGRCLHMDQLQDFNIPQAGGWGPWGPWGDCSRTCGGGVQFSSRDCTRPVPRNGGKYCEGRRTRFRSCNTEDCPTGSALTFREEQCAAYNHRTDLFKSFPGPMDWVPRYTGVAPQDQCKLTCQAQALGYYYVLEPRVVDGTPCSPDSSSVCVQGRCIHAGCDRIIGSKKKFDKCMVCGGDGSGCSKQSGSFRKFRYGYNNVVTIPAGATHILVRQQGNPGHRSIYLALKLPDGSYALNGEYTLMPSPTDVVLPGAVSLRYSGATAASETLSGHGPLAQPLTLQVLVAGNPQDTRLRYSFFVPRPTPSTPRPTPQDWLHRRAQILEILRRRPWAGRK
In words: human ADAMTS4 AlphaLISA. In kind it is biochemical. The note with it: data not shown. How it is done:
To confirm the selectivity of ISVD 02F03 for ADAMTS5, inhibition of the enzymatic activity of MMP1, MMP14 and ADAMTS4 was evaluated via FRET-based assays and a human ADAMTS4 AlphaLISA, with the respective enzymes.
To evaluate inhibition of human ADAMTS4, an assay similar to the human ADAMTS5 AlphaLISA was carried out, essentially as described in Example 2.1, but using human ADAMTS4 (R&D Systems, Minneapolis, US; cat #4307-AD). To determine the ability of ISVD 02F03 to prevent human ADAMTS4-mediated cleavage of the substrate, the decrease in signal was analysed in function of ISVD 02F03 concentration and IC50 values were calculated.

The target of experiment [3] is T3, human ADAMTS5 (Homo sapiens, UniProt Q9UNA0).
T3 sequence (Q9UNA0 262-930): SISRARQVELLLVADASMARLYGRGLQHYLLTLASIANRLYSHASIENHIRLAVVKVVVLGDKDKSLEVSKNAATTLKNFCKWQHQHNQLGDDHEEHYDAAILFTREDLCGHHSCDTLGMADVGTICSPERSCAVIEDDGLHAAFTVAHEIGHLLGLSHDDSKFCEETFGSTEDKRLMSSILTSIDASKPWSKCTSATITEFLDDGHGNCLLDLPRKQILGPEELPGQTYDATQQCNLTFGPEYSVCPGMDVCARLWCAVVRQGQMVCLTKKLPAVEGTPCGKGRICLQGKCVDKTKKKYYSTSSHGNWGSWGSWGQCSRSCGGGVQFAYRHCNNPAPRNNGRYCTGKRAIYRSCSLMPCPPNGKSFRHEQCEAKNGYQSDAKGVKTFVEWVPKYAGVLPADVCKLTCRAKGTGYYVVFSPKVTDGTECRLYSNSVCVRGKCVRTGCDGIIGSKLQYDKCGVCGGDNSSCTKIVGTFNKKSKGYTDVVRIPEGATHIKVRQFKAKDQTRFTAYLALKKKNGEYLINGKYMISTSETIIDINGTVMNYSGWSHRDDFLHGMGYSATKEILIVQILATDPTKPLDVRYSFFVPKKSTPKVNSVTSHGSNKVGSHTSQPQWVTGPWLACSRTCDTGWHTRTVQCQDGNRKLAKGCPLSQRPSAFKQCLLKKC
Nature of the experiment: AlphaLISA based human ADAMTS5 assay. In kind it is biochemical. As for the experimental part:
In short, a periplasmic extract of ISVD 02F03 was tested for binding to recombinant human ADAMTS5 by binding ELISA. Next, it was confirmed that ISVD 02F03 was able to prevent ADAMTS5-mediated cleavage of Aggrecan in a FRET-based human ADAMTS5 enzymatic assay. Next to the FRET-based assay, an AlphaLISA (Perkin Elmer, Waltham, MA, US) based human ADAMTS5 assay with a biotinylated 43-mer Aggrecan oligopeptide as substrate was performed. Upon ADAMTS5 cleavage of this substrate, a biotinylated ARGSV neo-epitope product is released and can be detected by streptavidin-AlphaScreen donor beads and an α-neo-epitope (“ARGSV”) antibody captured on anti-mouse IgG-coated AlphaLISA acceptor beads, resulting in the generation of a luminescence AlphaScreen signal upon laser excitation. To determine the ability of ISVD 02F03 to prevent ADAMTS5-mediated cleavage of the substrate, the decrease in signal was analysed in function of ISVD 02F03 concentration and IC50 values were calculated.

B1: ISVD 02F03: immunoglobulin single variable domain which specifically binds ADAMTS5 (protein)
VHH: EVQLVESGGGVVQPGGSLRLSCAASGRTVSSYAMGWFRQAPGKEREFVAGISRSAERTYYVDSLKGRFTISRDNSKNTVYLQMNSLRPEDTALYYCAADLDPNRIFSREEYAYWGQGTLVTVSS
modifications: Description of Artificial Sequence: Synthetic anti-ADAMTS5 immunoglobulin single variable domain (ISVD)
On to B1, for which the “SPR based off-rate, kd, Mouse ADAMTS-5” value in experiment [1] was 0.00029 s⁻¹. Further, the “inhibition of human ADAMTS4 activity” value in experiment [2] is recorded as “did not show any inhibitory activity”. The “Human AlphaLISA % inhibition” value in experiment [3] was found to be 100%.
